Results as given in patent US10724034B2, “Genetic encoding of chemical post-translational modification for phage-displayed libraries” (THE GOVERNORS OF THE UNIVERSITY OF ALBERTA, priority 2014, dated 2020).

Molecular target: T1, Bovine carbonic anhydrase II (bovine, UniProt P00921 2-260)
T1 construct: Commercial protein; also called BCA
Test: panning/deep seq., Carbonic rep 1 [Carbonic Anhydrase]

T1 sequence (P00921 2-260 limits assumed): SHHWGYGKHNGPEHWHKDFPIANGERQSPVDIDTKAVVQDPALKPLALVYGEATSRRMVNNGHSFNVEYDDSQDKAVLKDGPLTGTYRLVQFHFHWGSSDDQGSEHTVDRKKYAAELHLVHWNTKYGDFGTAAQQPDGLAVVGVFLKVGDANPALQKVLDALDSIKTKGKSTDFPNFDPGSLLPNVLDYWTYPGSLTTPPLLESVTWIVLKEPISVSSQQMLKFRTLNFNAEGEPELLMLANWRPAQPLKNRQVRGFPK

copy number | Substance
35 | SA-QIEH (peptide)
44 | SA-TAFI (peptide)
3 | SA-WFKL (peptide)
3 | SA-WKQQ (peptide)
4 | SA-WLVL (peptide)
3 | SA-WNSK (peptide)
121 | SA-WNTK (peptide)
10 | SA-WPPP (peptide)
17 | SA-WPPY (peptide)
403 | SA-WQQQ (peptide)
3 | SA-WSVM (peptide)
63 | SA-WTSG (peptide)
43 | SA-WTWL (peptide)
18 | SA-WTYW (peptide)
862 | SA-WYKL (peptide)
50 | SA-YGTH (peptide)
51 | SA-YMSN (peptide)
154 | SA-YQYS (peptide)

Molecular target: streptavidin (UniProt P22629)
Sequence (P22629 37-163 limits assumed): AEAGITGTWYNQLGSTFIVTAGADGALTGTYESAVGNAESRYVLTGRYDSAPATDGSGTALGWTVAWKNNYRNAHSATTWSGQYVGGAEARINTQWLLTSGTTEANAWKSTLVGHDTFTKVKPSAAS
Test: panning/deep seq., Ratio col 2 (Streptavadin/Naive by arithmetic)

Ratio | Substance
138 | Bio-AHPL (peptide)
68 | Bio-GYTQ (peptide)
532 | Bio-HFTN (peptide)
88 | Bio-HKLN (peptide)
373 | Bio-HLRV (peptide)
52 | Bio-HMPR (peptide)
67 | Bio-HPSY (peptide)
492 | Bio-PALP (peptide)
219 | Bio-PFVQ (peptide)
14 | Bio-PHLP (peptide)
21 | Bio-PHYN (peptide)
38 | Bio-PLAQ (peptide)
41 | Bio-PQMS (peptide)
21 | Bio-PSIG (peptide)
75 | Bio-PTHT (peptide)
49 | Bio-PVSI (peptide)
257 | Bio-VHAW (peptide)
75 | Bio-VHNT (peptide)
121 | Bio-WYPH (peptide)
24 | Bio-YMNN (peptide)

Molecular target: T1, Bovine carbonic anhydrase II
Test: panning/deep seq., Ratio col 1 (Carbonic/Blank by arithmetic) [Carbonic Anhydrase]

Ratio | Substance
91 | SA-QIEH (peptide)
167 | SA-TAFI (peptide)
11 | SA-WFKL (peptide)
10 | SA-WKQQ (peptide)
12 | SA-WLVL (peptide)
10 | SA-WNSK (peptide)
672 | SA-WNTK (peptide)
39 | SA-WPPP (peptide)
59 | SA-WPPY (peptide)
1580 | SA-WQQQ (peptide)
10 | SA-WSVM (peptide)
154 | SA-WTSG (peptide)
140 | SA-WTWL (peptide)
73 | SA-WTYW (peptide)
2560 | SA-WYKL (peptide)
257 | SA-YGTH (peptide)
143 | SA-YMSN (peptide)
443 | SA-YQYS (peptide)

Molecular target: streptavidin (UniProt P22629)
Test: panning/deep seq., Ratio col 1 (Streptavadin/Blank by arithmetic)

Ratio | Substance
920 | Bio-AHPL (peptide)
682 | Bio-GYTQ (peptide)
532 | Bio-HFTN (peptide)
294 | Bio-HKLN (peptide)
373 | Bio-HLRV (peptide)
344 | Bio-HMPR (peptide)
448 | Bio-HPSY (peptide)
492 | Bio-PALP (peptide)
219 | Bio-PFVQ (peptide)
271 | Bio-PHLP (peptide)
259 | Bio-PHYN (peptide)
257 | Bio-PLAQ (peptide)
1090 | Bio-PQMS (peptide)
493 | Bio-PSIG (peptide)
500 | Bio-PTHT (peptide)
330 | Bio-PVSI (peptide)
257 | Bio-VHAW (peptide)
251 | Bio-VHNT (peptide)
402 | Bio-WYPH (peptide)
316 | Bio-YMNN (peptide)

Molecular target: streptavidin (UniProt P22629)
Test: panning/deep seq., Ratio col 3 (Streptavadin/Bulk amplified by arithmetic)

Ratio | Substance
138 | Bio-AHPL (peptide)
614 | Bio-GYTQ (peptide)
68 | Bio-HFTN (peptide)
12 | Bio-HKLN (peptide)
56 | Bio-HLRV (peptide)
44 | Bio-HMPR (peptide)
58 | Bio-HPSY (peptide)
89 | Bio-PALP (peptide)
99 | Bio-PFVQ (peptide)
15 | Bio-PHLP (peptide)
58 | Bio-PHYN (peptide)
33 | Bio-PLAQ (peptide)
197 | Bio-PQMS (peptide)
56 | Bio-PSIG (peptide)
64 | Bio-PTHT (peptide)
74 | Bio-PVSI (peptide)
38 | Bio-VHAW (peptide)
75 | Bio-VHNT (peptide)
72 | Bio-WYPH (peptide)
142 | Bio-YMNN (peptide)

Molecular target: T1, Bovine carbonic anhydrase II
Test: panning/deep seq., Ratio col 2 (Carbonic/Naive by arithmetic) [Carbonic Anhydrase]

Ratio | Substance
3 | SA-QIEH (peptide)
167 | SA-TAFI (peptide)
11 | SA-WFKL (peptide)
10 | SA-WKQQ (peptide)
12 | SA-WLVL (peptide)
10 | SA-WNSK (peptide)
19 | SA-WNTK (peptide)
6 | SA-WPPP (peptide)
4 | SA-WPPY (peptide)
178 | SA-WQQQ (peptide)
10 | SA-WSVM (peptide)
9 | SA-WTSG (peptide)
140 | SA-WTWL (peptide)
6 | SA-WTYW (peptide)
288 | SA-WYKL (peptide)
26 | SA-YGTH (peptide)
143 | SA-YMSN (peptide)
44 | SA-YQYS (peptide)

Molecular target: T1, Bovine carbonic anhydrase II
Test: panning/deep seq., Carbonic rep 3 [Carbonic Anhydrase]

copy number | Substance
27 | SA-QIEH (peptide)
48 | SA-TAFI (peptide)
2 | SA-WFKL (peptide)
4 | SA-WKQQ (peptide)
3 | SA-WLVL (peptide)
2 | SA-WNSK (peptide)
228 | SA-WNTK (peptide)
15 | SA-WPPP (peptide)
20 | SA-WPPY (peptide)
596 | SA-WQQQ (peptide)
4 | SA-WSVM (peptide)
46 | SA-WTSG (peptide)
26 | SA-WTWL (peptide)
15 | SA-WTYW (peptide)
285 | SA-WYKL (peptide)
63 | SA-YGTH (peptide)
53 | SA-YMSN (peptide)
51 | SA-YQYS (peptide)

Molecular target: streptavidin (UniProt P22629)
Test: panning/deep seq., Streptavadin rep 1

copy number | Substance
382 | Bio-AHPL (peptide)
240 | Bio-GYTQ (peptide)
246 | Bio-HFTN (peptide)
95 | Bio-HKLN (peptide)
58 | Bio-HLRV (peptide)
118 | Bio-HMPR (peptide)
85 | Bio-HPSY (peptide)
125 | Bio-PALP (peptide)
82 | Bio-PFVQ (peptide)
84 | Bio-PHLP (peptide)
53 | Bio-PHYN (peptide)
110 | Bio-PLAQ (peptide)
282 | Bio-PQMS (peptide)
145 | Bio-PSIG (peptide)
154 | Bio-PTHT (peptide)
75 | Bio-PVSI (peptide)
73 | Bio-VHAW (peptide)
29 | Bio-VHNT (peptide)
85 | Bio-WYPH (peptide)
110 | Bio-YMNN (peptide)

Molecular target: T1, Bovine carbonic anhydrase II
Test: panning/deep seq., Ratio col 3 (Carbonic/Bulk amplified by arithmetic) [Carbonic Anhydrase]

Ratio | Substance
2 | SA-QIEH (peptide)
75 | SA-TAFI (peptide)
11 | SA-WFKL (peptide)
10 | SA-WKQQ (peptide)
12 | SA-WLVL (peptide)
10 | SA-WNSK (peptide)
38 | SA-WNTK (peptide)
35 | SA-WPPP (peptide)
5 | SA-WPPY (peptide)
102 | SA-WQQQ (peptide)
10 | SA-WSVM (peptide)
11 | SA-WTSG (peptide)
21 | SA-WTWL (peptide)
8 | SA-WTYW (peptide)
121 | SA-WYKL (peptide)
7 | SA-YGTH (peptide)
10 | SA-YMSN (peptide)
44 | SA-YQYS (peptide)

Molecular target: T1, Bovine carbonic anhydrase II
Test: panning/deep seq., Carbonic rep 2 [Carbonic Anhydrase]

copy number | Substance
20 | SA-QIEH (peptide)
58 | SA-TAFI (peptide)
5 | SA-WFKL (peptide)
2 | SA-WKQQ (peptide)
4 | SA-WLVL (peptide)
4 | SA-WNSK (peptide)
256 | SA-WNTK (peptide)
10 | SA-WPPP (peptide)
16 | SA-WPPY (peptide)
422 | SA-WQQQ (peptide)
2 | SA-WSVM (peptide)
30 | SA-WTSG (peptide)
57 | SA-WTWL (peptide)
33 | SA-WTYW (peptide)
1160 | SA-WYKL (peptide)
118 | SA-YGTH (peptide)
25 | SA-YMSN (peptide)
194 | SA-YQYS (peptide)

Molecular target: streptavidin (UniProt P22629)
Test: panning/deep seq., Streptavadin rep 2

copy number | Substance
113 | Bio-AHPL (peptide)
227 | Bio-GYTQ (peptide)
135 | Bio-HFTN (peptide)
98 | Bio-HKLN (peptide)
110 | Bio-HLRV (peptide)
121 | Bio-HMPR (peptide)
214 | Bio-HPSY (peptide)
108 | Bio-PALP (peptide)
61 | Bio-PFVQ (peptide)
37 | Bio-PHLP (peptide)
110 | Bio-PHYN (peptide)
71 | Bio-PLAQ (peptide)
248 | Bio-PQMS (peptide)
125 | Bio-PSIG (peptide)
178 | Bio-PTHT (peptide)
94 | Bio-PVSI (peptide)
39 | Bio-VHAW (peptide)
87 | Bio-VHNT (peptide)
150 | Bio-WYPH (peptide)
134 | Bio-YMNN (peptide)

Molecular target: streptavidin (UniProt P22629)
Test: panning/deep seq., Streptavadin rep 3

copy number | Substance
333 | Bio-AHPL (peptide)
147 | Bio-GYTQ (peptide)
98 | Bio-HFTN (peptide)
72 | Bio-HKLN (peptide)
168 | Bio-HLRV (peptide)
71 | Bio-HMPR (peptide)
104 | Bio-HPSY (peptide)
210 | Bio-PALP (peptide)
54 | Bio-PFVQ (peptide)
123 | Bio-PHLP (peptide)
70 | Bio-PHYN (peptide)
50 | Bio-PLAQ (peptide)
453 | Bio-PQMS (peptide)
174 | Bio-PSIG (peptide)
118 | Bio-PTHT (peptide)
128 | Bio-PVSI (peptide)
119 | Bio-VHAW (peptide)
110 | Bio-VHNT (peptide)
127 | Bio-WYPH (peptide)
40 | Bio-YMNN (peptide)
